Paper PMC8639797

Target: ALK ECR^ABR variants with single substitutions in the TNF-like or EGF-like domains (BLI, Fig. 2d)
Experiment: BLI

fold reduction of affinity against wild type: 2 to 3 fold
B1: ALKAL2-AD (residues 77–152) (domain or fragment)
chain: GPSPEQRVEIVPRDLRMKDKFLKHLTGPLYFSPKCSKHFHRLYHNTRDCTIPAYYKRCARLLTRLAVSPVCMEDKQ
